Values of other authors in paper PMC10303925.

How the values were obtained:
[1] = target: SLP2-A (Homo sapiens) (UniProt Q9HCH5)
[2] = target: MLPH (Homo sapiens) (UniProt Q9BV36)
Chain of UniProt Q9BV36 (Q9BV36 whole entry): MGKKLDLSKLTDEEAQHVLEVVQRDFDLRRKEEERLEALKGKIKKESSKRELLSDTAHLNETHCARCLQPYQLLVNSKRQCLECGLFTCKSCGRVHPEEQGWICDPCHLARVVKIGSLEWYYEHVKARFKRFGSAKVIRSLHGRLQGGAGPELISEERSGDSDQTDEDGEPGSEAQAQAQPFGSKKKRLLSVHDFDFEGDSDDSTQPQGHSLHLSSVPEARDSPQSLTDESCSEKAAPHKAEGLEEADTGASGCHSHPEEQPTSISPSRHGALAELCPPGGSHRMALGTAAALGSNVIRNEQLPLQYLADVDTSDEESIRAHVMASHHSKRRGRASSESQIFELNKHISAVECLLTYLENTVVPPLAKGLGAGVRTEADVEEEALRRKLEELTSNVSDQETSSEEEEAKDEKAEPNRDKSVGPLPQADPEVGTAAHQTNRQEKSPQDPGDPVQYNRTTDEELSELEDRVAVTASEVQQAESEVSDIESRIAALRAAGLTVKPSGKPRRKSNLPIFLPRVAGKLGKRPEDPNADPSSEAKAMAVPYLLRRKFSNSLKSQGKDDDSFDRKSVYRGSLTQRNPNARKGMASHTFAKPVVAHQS

Chain of UniProt Q9HCH5 (Q9HCH5 whole entry): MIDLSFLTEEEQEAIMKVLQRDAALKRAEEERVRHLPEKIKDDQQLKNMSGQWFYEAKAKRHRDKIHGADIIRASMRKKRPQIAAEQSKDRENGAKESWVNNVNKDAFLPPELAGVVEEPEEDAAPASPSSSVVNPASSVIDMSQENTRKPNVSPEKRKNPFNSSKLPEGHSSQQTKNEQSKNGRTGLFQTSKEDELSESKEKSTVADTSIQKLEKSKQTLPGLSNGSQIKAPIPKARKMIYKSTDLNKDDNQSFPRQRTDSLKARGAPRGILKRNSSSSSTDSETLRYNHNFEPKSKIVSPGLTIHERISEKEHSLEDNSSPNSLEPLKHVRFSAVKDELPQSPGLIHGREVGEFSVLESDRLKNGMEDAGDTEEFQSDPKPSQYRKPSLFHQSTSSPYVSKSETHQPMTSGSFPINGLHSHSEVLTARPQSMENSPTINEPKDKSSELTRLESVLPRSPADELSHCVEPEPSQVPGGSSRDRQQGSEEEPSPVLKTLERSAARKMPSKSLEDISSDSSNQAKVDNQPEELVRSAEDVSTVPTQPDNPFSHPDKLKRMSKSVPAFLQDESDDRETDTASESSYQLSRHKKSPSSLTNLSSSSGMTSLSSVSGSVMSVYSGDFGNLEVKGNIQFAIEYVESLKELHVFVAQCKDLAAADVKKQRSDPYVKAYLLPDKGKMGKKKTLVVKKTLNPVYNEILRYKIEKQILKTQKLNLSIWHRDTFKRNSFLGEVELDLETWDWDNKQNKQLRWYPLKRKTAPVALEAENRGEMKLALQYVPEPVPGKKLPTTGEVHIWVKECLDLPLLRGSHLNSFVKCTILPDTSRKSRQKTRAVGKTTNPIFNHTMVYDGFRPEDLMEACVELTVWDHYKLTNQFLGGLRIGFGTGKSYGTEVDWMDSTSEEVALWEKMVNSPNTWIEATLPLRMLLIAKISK

Kd [1]: 20 nM
Kd [2]: 200 nM
Substance: RAB27A (from UniProt P51159)
